In the supplement of paper PMC9732359:
± gives the uncertainty stated by the source.

Assay: protein stability index of a GFP-peptide fusion (yeast GPS) (PSI 1-4); higher = more stable; sorted into four equal gates, so the index is relative within each strain
Method in brief: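 Mid-log yeast cultures in leucine-free medium, carrying a pooled plasmid library, were sorted into four equal gates by their GFP/Cherry fluorescence ratio. Each plasmid expressed Cherry along with GFP fused upstream of a tiled 17-residue yeast protein peptide. Plasmids recovered from each gate were PCR-amplified and Illumina-sequenced, with reads assigned to strains by barcodes. The protein stability index was obtained by summing each gate's read frequency weighted by its gate number.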

| Sequence | protein stability index (doa10∆) | protein stability index (pdr5∆) | protein stability index (san1∆) | protein stability index (ubr1∆) |
| --- | --- | --- | --- | --- |
| VTMGAKDKLREFIPHST [RPN6] | 3.46 ± 0.11 | 3.1 ± 0.14 | 2.96 ± 0.099 | 3.04 ± 0.11 |
| VSKEGLYQLVDIRDSSC [YMR129W/POM152] | 2.83 ± 0.099 | 2.92 ± 0.084 | 2.7 ± 0.06 | 2.84 ± 0.05 |
| HRDAYSGGSVNLYHVTE [PRE2] | 2.81 ± 0.11 | 3.32 ± 0.086 | 3 ± 0.07 | 3.03 ± 0.073 |
| VEILFEAGASAELDDCR [RPO21] | 2.94 ± 0.14 | 3.44 ± 0.15 | 2.93 ± 0.074 | 3.49 ± 0.16 |
| SKAFKESSDFGAIILTK [SRP54] | 2.12 ± 0.073 | 1.57 ± 0.056 | 1.56 ± 0.17 | 1.67 ± 0.06 |
| KDMLYSGITGECLQAYI [RET1] | 2.65 ± 0.047 | 2.68 ± 0.051 | 2.5 ± 0.052 | 2.31 ± 0.057 |
| EDVALNEQVKKFFLNNV [NAS6] | 2.64 ± 0.047 | 2.5 ± 0.058 | 2.44 ± 0.051 | 2.88 ± 0.042 |
| WCAGAGTAADTEAVTQL [PUP1] | 3.16 ± 0.24 | 2.94 ± 0.23 | 2.78 ± 0.21 | – |
| IIKQENFNSVNDANITS [SSN2] | – | 1.1 ± 0.11 | – | – |
| LETEQLSSELDSNKTLL [SMC2] | 3.35 ± 0.071 | 3.32 ± 0.082 | 3.26 ± 0.05 | 3.31 ± 0.049 |
| ISGNPPLLYNSLCTVWK [SRB5] | 2.56 ± 0.051 | 2.41 ± 0.045 | 2.34 ± 0.048 | 2.38 ± 0.055 |
| LSINKNFINQEDEGEER [RPC17] | – | 3.29 ± 0.28 | – | – |
| RQFLKANKTNLIESLNT [YML103C/NUP188] | 2.76 ± 0.053 | 2.97 ± 0.062 | 2.87 ± 0.047 | 2.99 ± 0.039 |
| VEIEKRILKLGTQLATL [YGR119C/NUP57] | 2.11 ± 0.23 | 1.22 ± 0.14 | 1.94 ± 0.18 | 1.4 ± 0.066 |
| IDKNHGFERLTVNEPQM [SRB7] | 3.03 ± 0.094 | 3.25 ± 0.075 | 3.23 ± 0.14 | 3.02 ± 0.052 |
| LQYYILEYMNTARINNR [RRI2] | 2.12 ± 0.15 | 1.37 ± 0.097 | 1.96 ± 0.14 | 1.93 ± 0.12 |
| NGEEIVGFWKDDGDDED [MTR3] | 2.52 ± 0.11 | 2.66 ± 0.074 | 2.89 ± 0.091 | 3.45 ± 0.087 |
| YMRKQVGVGKLNKLYGG [RPS19A] | 2.99 ± 0.16 | 2.48 ± 0.17 | 2.89 ± 0.14 | 3.41 ± 0.12 |
| FPKTTVAALRFTAGARA [RPL18A] | 1.58 ± 0.15 | 1.47 ± 0.085 | – | 1.5 ± 0.12 |
| LKKFRESLVHSALCILK [BRR2] | 3.21 ± 0.12 | 2.1 ± 0.073 | 2.86 ± 0.078 | 2.97 ± 0.066 |
| EQTRTILSVKLAELINM [SRB6] | – | – | 2.91 ± 0.24 | – |
| GAKYVIRDSGDRIDLRY [RPO21] | 3.23 ± 0.16 | 3.31 ± 0.15 | – | 3.45 ± 0.13 |
| STNHPDYDVSKKASEIS [SRP14] | – | 3 ± 0.24 | – | – |
| LYSVKFAPAHLGLKLAC [YGL100W/SEH1] | 2.73 ± 0.074 | 1.98 ± 0.049 | 2.72 ± 0.072 | 2.79 ± 0.046 |
| SSASPSALTSPTDSSKI [SIR3] | 2.71 ± 0.048 | 3.08 ± 0.055 | 2.87 ± 0.045 | 2.72 ± 0.033 |
| KGVLLYGPPGTGKTLLA [RPT4] | 2.51 ± 0.045 | 2.58 ± 0.041 | 2.57 ± 0.048 | 2.29 ± 0.035 |
| NSSTSSTSNTPSPPNVI [YDL088C/ASM4] | 2.88 ± 0.05 | 2.88 ± 0.045 | 2.7 ± 0.052 | 3.06 ± 0.043 |
| YIFCISRTIGMVVNGPI [SCL1] | 1.45 ± 0.038 | 1.54 ± 0.047 | 1.58 ± 0.082 | 1.56 ± 0.034 |
